Assay results taken from patent publication US20190338027A1 (ALLAKOS, published 2019).

Target: human Siglec-8 on lung mast cells from COPD patients (human, UniProt Q9NYZ4 17-499)
Experiment: cell-based or functional assay

Sequence of human Siglec-8 on lung mast cells from COPD patients (Q9NYZ4 17-499): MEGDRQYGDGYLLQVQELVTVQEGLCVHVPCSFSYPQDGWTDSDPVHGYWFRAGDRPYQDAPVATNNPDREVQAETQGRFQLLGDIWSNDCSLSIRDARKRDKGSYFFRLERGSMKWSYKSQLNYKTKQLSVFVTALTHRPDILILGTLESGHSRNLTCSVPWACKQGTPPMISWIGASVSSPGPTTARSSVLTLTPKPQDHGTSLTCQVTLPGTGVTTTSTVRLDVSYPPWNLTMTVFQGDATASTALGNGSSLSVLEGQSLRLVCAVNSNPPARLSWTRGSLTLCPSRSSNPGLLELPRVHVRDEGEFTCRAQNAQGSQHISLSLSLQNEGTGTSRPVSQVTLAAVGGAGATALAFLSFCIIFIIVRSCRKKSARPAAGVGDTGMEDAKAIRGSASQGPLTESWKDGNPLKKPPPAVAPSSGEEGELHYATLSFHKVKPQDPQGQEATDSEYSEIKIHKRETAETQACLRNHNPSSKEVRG

decrease in VEGF secreted into the cell supernatant by COPD lung tissue homogenates incubated overnight with antibody, relative to isotype control antibody: ~50%
B1: anti-Siglec-8 IgG4 antibody (HEKA) (antibody, V domains shown)
VH: EVQLVESGGGLVQPGGSLRLSCAASGFSLTIYGAHWVRQAPGKGLEWVGVIWAGGSTNYNSALMSRFTISKDNSKNTVYLQMNSLRAEDTAVYYCARDGSSPYYYSMEYWGQGTTVTVSS
VL: EIVLTQSPATLSLSPGERATLSCSATSSVSYMHWFQQKPGQAPRLLIYSTSNLASGIPARFSGSGSGTDFTLTISSLEPEDFAVYYCQQRSSYPFTFGPGTKLDIKR
